Measured values as given in US20220306744A1 (CRESCENDO BIOLOGICS, published 2022).
Residue numbers refer to the chain shown, from its start.

B1: 1.6a (VHH)
VHH: EVQLVESGGGVVQPGRSLRLSCAASGFTFSSYAMHWVRQAPGKGREWVSGISWNSGSMGYAESVKGRFTISRDNAKNSLYLQMNSLRAEDSALYYCVKDKGPGLTGTTADYYGMDVWGQGTTVTVSS
B2: 1.15a (VHH)
VHH: B1 VHH with V5L, V11L, A23T, S30D, S31D, T105I, T107S
B3: 1.7a (VHH)
VHH: B1 VHH with V12I, S30D, S31D, S55G, K76Q
B4: 1.31a (VHH)
VHH: EVQLVESGGGLVQPGRSLRLSCAASGFTFDDYALHWVRQAPGKDLEWVSGISWNGGSMGYAASVKGRFTISRDNAKNSLYLQMNSLRAEDTALYYCVREKGPGLTGSTADYYGLDAWGQGTMVTVSS
B5: 1.48a (VHH)
VHH: B4 VHH with G55S, M58Q, A62D
B6: 1.33a (VHH)
VHH: B4 VHH with L34M, M58Y, A62D
B7: 1.46a (VHH)
VHH: B4 VHH with G55A, M58Y, A62D
B8: 1.42a (VHH)
VHH: B4 VHH with L34F, M58Q, A62D
B9: 1.50a (VHH)
VHH: B4 VHH with L34F, G55A, M58Q, A62D
B10: 1.41a (VHH)
VHH: B4 VHH with L34F, M58Y, A62D
B11: 1.47a (VHH)
VHH: B4 VHH with L34F, G55S, M58Y, A62D
B12: 1.34a (VHH)
VHH: B4 VHH with L34M, M58Q, A62D
B13: 1.39a (VHH)
VHH: B4 VHH with M58Y, A62D
notes: also called Humabody 1.39a
B14: 1.37a (VHH)
VHH: B4 VHH with L34F, A62D
B15: 1.49a (VHH)
VHH: B4 VHH with L34F, G55S, M58Q, A62D
B16: 1.43a (VHH)
VHH: B4 VHH with L34F, G55A, M58Y, A62D
B17: 1.44a (VHH)
VHH: B4 VHH with G55S, M58Y, A62D
B18: 1.36a (VHH)
VHH: B4 VHH with L34M, G55A, A62D
B19: 1.35a (VHH)
VHH: B4 VHH with L34M, M58K, A62D
B20: 1.45a (VHH)
VHH: B4 VHH with G55A, M58Q, A62D
B21: 1.38a (VHH)
VHH: B4 VHH with A62D
B22: 1.40a (VHH)
VHH: B4 VHH with M58Q, A62D
B23: 1.32a (VHH)
VHH: B4 VHH with L34M, G55S, A62D
B24: 1.51a (VHH)
VHH: EVQLVESGGGVVRPGGSLRLSCAASGFTFDDYAMSWVRQAPGKGLEWVSGITWNGGSTGYADSVKDRFTISRDNAKNSLYLQMNSLRAEDTALYYCVRDKYSYAWSYDGFDIWGQGTMVTVSS
B25: 1.67a (VHH)
VHH: B24 VHH with M34G, D66G
B26: 1.79a (VHH)
VHH: B24 VHH with D66G, G109D
B27: 1.63a (VHH)
VHH: B24 VHH with G55R, D66G, G109D
B28: 1.85a (VHH)
VHH: B24 VHH with M34D
B29: 1.88a (VHH)
VHH: B24 VHH with M34G
B30: 1.69a (VHH)
VHH: B24 VHH with M34W, D66G
B31: 1.59a (VHH)
VHH: B24 VHH with E1Q, T52S, T58K, V97A, K100P, Y103G, G109A
B32: 1.74a (VHH)
VHH: B24 VHH with G55S, G109D
B33: 1.68a (VHH)
VHH: B24 VHH with M34E, D66G
B34: 1.62a (VHH)
VHH: B24 VHH with G55A, D66G, G109D
notes: also called Humabody 1.62a
B35: 1.76a (VHH)
VHH: B24 VHH with G55H, G109V
B36: 1.83a (VHH)
VHH: B24 VHH with M34T
B37: 1.89a (VHH)
VHH: B24 VHH with M34E
B38: 1.77a (VHH)
VHH: B24 VHH with G55A, G109D
B39: 1.81a (VHH)
VHH: B24 VHH with G55R, G109D
B40: 1.75a (VHH)
VHH: B24 VHH with G55Q, G109D
B41: 1.58a (VHH)
VHH: B24 VHH with E1Q, V11L, R13Q, T52S, T58A, V97A, K100P, Y101H, Y103S, G109A
B42: 1.66a (VHH)
VHH: B24 VHH with M34N, D66G
B43: 1.80a (VHH)
VHH: B24 VHH with G55K, G109D
B44: 1.71a (VHH)
VHH: B24 VHH with M34L, D66G
B45: 1.70a (VHH)
VHH: B24 VHH with M34V, D66G
B46: 1.73a (VHH)
VHH: B24 VHH with M34R, D66G
B47: 1.86a (VHH)
VHH: B24 VHH with M34S
B48: 1.72a (VHH)
VHH: B24 VHH with M34S, D66G
B49: 1.61a (VHH)
VHH: B24 VHH with E1Q, D31N, V97A, G109T, W113R
B50: 1.65a (VHH)
VHH: B24 VHH with M34Q, D66G
B51: 1.64a (VHH)
VHH: B24 VHH with M34F, D66G
B52: 1.78a (VHH)
VHH: B24 VHH with D66G, G109V
B53: 1.87a (VHH)
VHH: B24 VHH with M34L
B54: 1.82a (VHH)
VHH: B24 VHH with M34I
B55: 1.60a (VHH)
VHH: B24 VHH with E1Q, T52S, V97A, K100P, Y103G, G109A
B56: 1.84a (VHH)
VHH: B24 VHH with M34N
B57: 1.17a (VHH)
VHH: EVQLLESGGGLVQPGGSLRLSCAASGFTFDDYAMHWVRQAPGKGLEWVSGISWNSGSMGYAASVKDRFTISRDNAKNSLYLQMNSLTTEDTALYYCVKDKGPGLIGSTADYHGLDVWGQGTTVTVSS

The binders below were run against T1, human PD-1 expressed on cells (CHO TREX human PD1 cell line, full-length human PD-1 sequence) (human, UniProt Q15116 21-288) (assay: worded summary of the screens).
T1 construct: Also used for human PD-1 on Jurkat reporter cells, on PathHunter cells and on PHA-stimulated human CD4+ T cells; also called CHO human PD1 cells; CHO human PD-1 cells
T1 sequence (Q15116 21-288): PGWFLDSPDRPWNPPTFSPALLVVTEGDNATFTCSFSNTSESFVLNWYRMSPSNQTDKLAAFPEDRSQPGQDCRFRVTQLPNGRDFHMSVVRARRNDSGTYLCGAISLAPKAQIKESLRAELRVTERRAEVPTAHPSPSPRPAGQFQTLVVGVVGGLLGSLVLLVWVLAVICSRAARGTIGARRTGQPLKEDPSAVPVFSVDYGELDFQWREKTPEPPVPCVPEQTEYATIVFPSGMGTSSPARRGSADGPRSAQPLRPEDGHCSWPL
B1: binds.
B2: binds.
B3: binds.
B4: binds.
B5: binds.
B6: binds.
B7: binds.
B8: binds.
B9: binds.
B10: binds.
B11: binds.
B12: binds.
B13: binds.
B14: binds.
B15: binds.
B16: binds.
B17: binds.
B18: binds.
B19: binds.
B20: binds.
B21: binds.
B22: binds.
B23: binds.
B24: binds.
B25: binds.
B26: binds.
B27: binds.
B28: binds.
B29: binds.
B30: binds.
B31: binds.
B32: binds.
B33: binds.
B34: binds.
B35: binds.
B36: binds.
B37: binds.
B38: binds.
B39: binds.
B40: binds.
B41: binds.
B42: binds.
B43: binds.
B44: binds.
B45: binds.
B46: binds.
B47: binds.
B48: binds.
B49: binds.
B50: binds.
B51: binds.
B52: binds.
B53: binds.
B54: binds.
B55: binds.
B56: binds.
B57: binds.
